[ ]: non-standard residue; d: D form.

Our source for the IC50 values is US20030096760A1 (GlaxoSmithKline, published 2003).

This test concerns the target T1, DET1-DET2-spacer-ek-src SH2 (human src SH2 domain fusion protein) (human).
T1 construct: In the assay it was captured on Protein-G Sepharose through MAB178.1; also called cloned human Src SH2 domain
T1 chain: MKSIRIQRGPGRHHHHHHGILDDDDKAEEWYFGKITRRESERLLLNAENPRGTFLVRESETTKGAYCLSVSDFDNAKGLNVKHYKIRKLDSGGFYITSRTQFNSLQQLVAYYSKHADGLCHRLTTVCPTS
The experiment in a line: ELISA-based filter plate competition assay; SH2 fusion captured by MAB178.1, displacement of 0.1 uM biotinylated pY peptide (SEQ ID NO: 13).

B1: (S)-alpha-(acetylamino)-1,3-dihydro-3-hydroxy-1-oxo-5-isobenzofuranpropanamido-glutamate-glutamate-isoleucine-glutamate-amine (peptide)
peptide: Ac-[(S)‑2‑amino‑3‑(1,3-dihydro-3-hydroxy-1-oxo-isobenzofuran-5-yl)propanoic acid]EEIE-NH2
notes: Synthetic modified pentapeptide; also called Compound 1
The IC50 is the point on the concentration scale where inhibition reaches its midpoint. A lower IC50 goes with inhibition by little substance. As to B1, the IC50 amounted to 250 nM.
